Test results as given in EP4700040A1, “PEPTIDE AND LUMINESCENT COMPLEX CONTAINING SAME” (Shenzhen Loggene Life Science & Technology Co., Ltd., priority 2023, dated 2024).
Where two headings read alike, the source gives them in different places.

Key:
[1] = target: Large subunit-rSCFV5 fusion protein; assay: cell-based or functional assay
[2] = target: Large subunit-rSCFV5 fusion protein; assay: cell-based or functional assay; remark: listed apart in the source

Sequence of Large subunit-rSCFV5 fusion protein (chain, as listed by the source): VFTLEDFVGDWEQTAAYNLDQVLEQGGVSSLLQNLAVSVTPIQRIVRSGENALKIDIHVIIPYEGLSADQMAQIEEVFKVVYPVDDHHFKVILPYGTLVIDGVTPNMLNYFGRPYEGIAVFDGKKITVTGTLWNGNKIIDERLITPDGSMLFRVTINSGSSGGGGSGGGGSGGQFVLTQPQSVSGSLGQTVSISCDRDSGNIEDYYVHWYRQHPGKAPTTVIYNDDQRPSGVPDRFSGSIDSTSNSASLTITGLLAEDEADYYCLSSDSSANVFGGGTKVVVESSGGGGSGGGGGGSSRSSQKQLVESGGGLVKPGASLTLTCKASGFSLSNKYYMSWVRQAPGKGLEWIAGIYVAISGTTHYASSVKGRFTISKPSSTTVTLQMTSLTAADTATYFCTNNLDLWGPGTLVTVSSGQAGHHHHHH

RLU, PCT+ [1]	RLU, PCT- [1]	Signal-to-noise ratio [1]	Binder	also measured
8200 RLU	808 RLU	10.1	VEGYRLFERKS (peptide, part only; not given: rSCFV18 scFv part, part only) [rSCFV18-small subunit mutant fusion protein RC-145]	–
53900 RLU	1630 RLU	32.1	VEGYRLFERVL (peptide, part only; not given: rSCFV18 scFv part, part only) [rSCFV18-small subunit mutant fusion protein RB150]	–
16300 RLU	3000 RLU	5.4	VSGYRLFDRKS (peptide, part only; not given: rSCFV18 scFv part, part only) [rSCFV18-small subunit mutant fusion protein RC-228]	–
9280 RLU	1230 RLU	7.5	VSGWRIFDKKS (peptide, part only; not given: rSCFV18 scFv part, part only) [rSCFV18-small subunit mutant fusion protein RC-124]	–
5000 RLU	438 RLU	11.4	VEGYRIFEKKW (peptide, part only; not given: rSCFV18 scFv part, part only) [rSCFV18-small subunit mutant fusion protein RC-286]	Signal-to-noise ratio at 1000 pg/ml [1]: 5.5; normalised luminescence at PCT 0.0 pg/ml [1]: 5000; normalised luminescence at PCT 1 pg/ml [1]: 4670; normalised luminescence at PCT 3 pg/ml [1]: 4640; normalised luminescence at PCT 10 pg/ml [1]: 4830; normalised luminescence at PCT 30 pg/ml [1]: 5410; normalised luminescence at PCT 100 pg/ml [1]: 6700; normalised luminescence at PCT 1000 pg/ml [1]: 27600; normalised luminescence at PCT 10000 pg/ml [1]: 236000; normalised luminescence at PCT 100000 pg/ml [1]: 1.44e+06; normalised luminescence at PCT 250000 pg/ml [1]: 2.01e+06
11800 RLU	2500 RLU	4.7	VSGWRIFDRKS (peptide, part only; not given: rSCFV18 scFv part, part only) [rSCFV18-small subunit mutant fusion protein RC-041]	–
18300 RLU	3180 RLU	5.8	VEGWRLFDRKS (peptide, part only; not given: rSCFV18 scFv part, part only) [rSCFV18-small subunit mutant fusion protein RC-232]	–
3990 RLU	302 RLU	12.2	VEGYRLFNKEW (peptide, part only; not given: rSCFV18 scFv part, part only) [rSCFV18-small subunit mutant fusion protein RB284]	Signal-to-noise ratio at 1000 pg/ml [2]: 4.9; normalised luminescence at PCT 0 pg/ml [2]: 5000; normalised luminescence at PCT 1.1 pg/ml [2]: 5090; normalised luminescence at PCT 3.3 pg/ml [2]: 5290; normalised luminescence at PCT 10 pg/ml [2]: 5530; normalised luminescence at PCT 100 pg/ml [2]: 7040; normalised luminescence at PCT 1000 pg/ml [2]: 24700; normalised luminescence at PCT 10000 pg/ml [2]: 188000; normalised luminescence at PCT 100000 pg/ml [2]: 862000
81100 RLU	2140 RLU	36.9	VSGWRIHEKIS (peptide, part only; not given: rSCFV18 scFv part, part only) [rSCFV18-small subunit mutant fusion protein RA120]	Signal-to-noise ratio at 1000 pg/ml [2]: 18; normalised luminescence at PCT 0 pg/ml [2]: 5000; normalised luminescence at PCT 1.1 pg/ml [2]: 4900; normalised luminescence at PCT 3.3 pg/ml [2]: 5260; normalised luminescence at PCT 10 pg/ml [2]: 5860; normalised luminescence at PCT 100 pg/ml [2]: 13400; normalised luminescence at PCT 1000 pg/ml [2]: 90100; normalised luminescence at PCT 10000 pg/ml [2]: 695000; normalised luminescence at PCT 100000 pg/ml [2]: 2e+06
8510 RLU	820 RLU	10.4	VSGYRLFDRKW (peptide, part only; not given: rSCFV18 scFv part, part only) [rSCFV18-small subunit mutant fusion protein RC-033]	–

The next lines start with the binder.

Binder	RLU, PCT+ [1]	RLU, PCT- [1]	Signal-to-noise ratio [1]	also measured
VEGYRLFDKKW (peptide, part only; not given: rSCFV18 scFv part, part only) [rSCFV18-small subunit mutant fusion protein RB239]	31900 RLU	465 RLU	67.7	Signal-to-noise ratio at 1000 pg/ml [1]: 31.1; luminescence at PCT 0 pg/ml [1]: 288; luminescence at PCT 1.37 pg/ml [1]: 301; luminescence at PCT 4.12 pg/ml [1]: 332; luminescence at PCT 12.35 pg/ml [1]: 407; luminescence at PCT 37.04 pg/ml [1]: 590; luminescence at PCT 111.1 pg/ml [1]: 1320; luminescence at PCT 333.3 pg/ml [1]: 3360; luminescence at PCT 1000 pg/ml [1]: 8950; Signal-to-noise ratio at 1000 pg/ml [2]: 11.5; normalised luminescence at PCT 0 pg/ml [2]: 5000; normalised luminescence at PCT 1.1 pg/ml [2]: 5530; normalised luminescence at PCT 3.3 pg/ml [2]: 5620; normalised luminescence at PCT 10 pg/ml [2]: 5990; normalised luminescence at PCT 100 pg/ml [2]: 11000; normalised luminescence at PCT 1000 pg/ml [2]: 57600; normalised luminescence at PCT 10000 pg/ml [2]: 466000; normalised luminescence at PCT 100000 pg/ml [2]: 2.17e+06
VEGYRLFDRKS (peptide, part only; not given: rSCFV18 scFv part, part only) [rSCFV18-small subunit mutant fusion protein RC-218]	7240 RLU	921 RLU	7.9	Signal-to-noise ratio at 1000 pg/ml [1]: 6.3; normalised luminescence at PCT 0.0 pg/ml [1]: 5000; normalised luminescence at PCT 1 pg/ml [1]: 4940; normalised luminescence at PCT 3 pg/ml [1]: 4980; normalised luminescence at PCT 10 pg/ml [1]: 5160; normalised luminescence at PCT 30 pg/ml [1]: 5700; normalised luminescence at PCT 100 pg/ml [1]: 7490; normalised luminescence at PCT 1000 pg/ml [1]: 31600; normalised luminescence at PCT 10000 pg/ml [1]: 266000; normalised luminescence at PCT 100000 pg/ml [1]: 1.76e+06; normalised luminescence at PCT 250000 pg/ml [1]: 2.44e+06
VEGYRLFKREL (peptide, part only; not given: rSCFV18 scFv part, part only) [rSCFV18-small subunit mutant fusion protein RB152]	37200 RLU	906 RLU	40	–
VDGYRLFEKVS (peptide, part only; not given: rSCFV18 scFv part, part only) [rSCFV18-small subunit mutant fusion protein RC-263]	4770 RLU	685 RLU	7	Signal-to-noise ratio at 1000 pg/ml [1]: 5.8; normalised luminescence at PCT 0.0 pg/ml [1]: 5000; normalised luminescence at PCT 1 pg/ml [1]: 5130; normalised luminescence at PCT 3 pg/ml [1]: 5230; normalised luminescence at PCT 10 pg/ml [1]: 5190; normalised luminescence at PCT 30 pg/ml [1]: 5650; normalised luminescence at PCT 100 pg/ml [1]: 7130; normalised luminescence at PCT 1000 pg/ml [1]: 28800; normalised luminescence at PCT 10000 pg/ml [1]: 241000; normalised luminescence at PCT 100000 pg/ml [1]: 1.56e+06; normalised luminescence at PCT 250000 pg/ml [1]: 2.23e+06
VSGYRIFEKKW (peptide, part only; not given: rSCFV18 scFv part, part only) [rSCFV18-small subunit mutant fusion protein RC-113]	6210 RLU	1180 RLU	5.3	–
VDGWRLHEKIS (peptide, part only; not given: rSCFV18 scFv part, part only) [rSCFV18-small subunit mutant fusion protein RA141]	30600 RLU	463 RLU	65.1	Signal-to-noise ratio at 1000 pg/ml [2]: 8.6; normalised luminescence at PCT 0 pg/ml [2]: 5000; normalised luminescence at PCT 1.1 pg/ml [2]: 4930; normalised luminescence at PCT 3.3 pg/ml [2]: 5410; normalised luminescence at PCT 10 pg/ml [2]: 6020; normalised luminescence at PCT 100 pg/ml [2]: 8680; normalised luminescence at PCT 1000 pg/ml [2]: 42800; normalised luminescence at PCT 10000 pg/ml [2]: 333000; normalised luminescence at PCT 100000 pg/ml [2]: 1.4e+06
VEGYRLFEKVS (peptide, part only; not given: rSCFV18 scFv part, part only) [rSCFV18-small subunit mutant fusion protein RC-042]	5770 RLU	593 RLU	9.7	–
VEGYRLFDRVW (peptide, part only; not given: rSCFV18 scFv part, part only) [rSCFV18-small subunit mutant fusion protein RB128]	26200 RLU	658 RLU	38.8	–
VSGYRIFEKKS (peptide, part only; not given: rSCFV18 scFv part, part only) [rSCFV18-small subunit mutant fusion protein RC-129]	12000 RLU	2070 RLU	5.8	–
VEGYRLFNRVS (peptide, part only; not given: rSCFV18 scFv part, part only) [rSCFV18-small subunit mutant fusion protein RB027]	102000 RLU	4320 RLU	22.6	–
VSGYRIFDKKS (peptide, part only; not given: rSCFV18 scFv part, part only) [rSCFV18-small subunit mutant fusion protein RC-044]	10400 RLU	1300 RLU	8	–
VEGWRLFDRVS (peptide, part only; not given: rSCFV18 scFv part, part only) [rSCFV18-small subunit mutant fusion protein RC-237]	10800 RLU	2190 RLU	5	–
AEGYRLFDRKS (peptide, part only; not given: scFv part; template fusion not stated, part only) [small subunit mutant fusion protein RD-086]	–	–	–	complementary activity, luminescence at 3 min [1]: 3390 RLU; complementary activity, luminescence at 6 min [1]: 3220 RLU
VNGWRIFDKKS (peptide, part only; not given: rSCFV18 scFv part, part only) [rSCFV18-small subunit mutant fusion protein RC-242]	9040 RLU	1520 RLU	5.9	–
VEGYRLFDRKW (peptide, part only; not given: rSCFV18 scFv part, part only) [rSCFV18-small subunit mutant fusion protein RB186]	27200 RLU	590 RLU	45.1	–
VSGYRLFDKKW (peptide, part only; not given: rSCFV18 scFv part, part only) [rSCFV18-small subunit mutant fusion protein RC-261]	7220 RLU	1620 RLU	4.5	–
VEGYRLFEKVW (peptide, part only; not given: rSCFV18 scFv part, part only) [rSCFV18-small subunit mutant fusion protein RB172]	41400 RLU	1090 RLU	36.9	–
VEGYRLHEKIS (peptide, part only; not given: rSCFV18 scFv part, part only) [rSCFV18-small subunit mutant fusion protein RA128]	17900 RLU	387 RLU	45.2	–
VEGYRLFEKKL (peptide, part only; not given: rSCFV18 scFv part, part only) [rSCFV18-small subunit mutant fusion protein RB149]	79100 RLU	3590 RLU	21	–
VEGYRLFNRKW (peptide, part only; not given: rSCFV18 scFv part, part only) [rSCFV18-small subunit mutant fusion protein RB223]	39200 RLU	1100 RLU	34.7	–
IEGYRLFDRKS (peptide, part only; not given: scFv part; template fusion not stated, part only) [small subunit mutant fusion protein RD-092]	–	–	–	complementary activity, luminescence at 3 min [1]: 4900 RLU; complementary activity, luminescence at 6 min [1]: 4540 RLU
VEGYRLFNRVG (peptide, part only; not given: rSCFV18 scFv part, part only) [rSCFV18-small subunit mutant fusion protein RB122]	55400 RLU	2600 RLU	20.2	–
AEPYRIFDRKS (peptide, part only; not given: scFv part; template fusion not stated, part only) [small subunit mutant fusion protein RD-099]	–	–	–	complementary activity, luminescence at 3 min [1]: 221 RLU; complementary activity, luminescence at 6 min [1]: 52 RLU
